Measured values: publication PMC7497631, “Role of Membrane Tension Sensitive Endocytosis and Rho GTPases in the Uptake of the Alzheimer’s Disease Peptide Aβ(1-42)” (ACS Chemical Neuroscience, 2020)

Tests used:
SH-SY5Y cells [1] = details: cited from earlier work; for internalization in presence of inhibitors of actin polymerization: SH-SY5Y cells
Description: Rho GTPases are important regulators of CIE (Figure 1).[30],[41] […] Since Cdc42 (and other Rho GTPases) regulate the actin cytoskeleton,[74] this would be consistent with our previously published result that inhibitors of actin polymerization reduced Aβ(1-40) and Aβ(1-42) but not Trf internalization in SH-SY5Y cells.[13] To f ... || We repeated this set of experiments, exploring also the Rho GTPases Rac1 and RhoA. Overexpression of EGFP-tagged Rac1 (DA Q61L, WT, and DN T17N) induced lamellipodia-like morphologies in transfected cells as expected from the literature.[74] […] The latter result is contrasting observations by ... || We report that Aβ(1-42) uptake into SH-SY5Y cells is sensitive to osmotic pressure-induced alterations in membrane tension, which points to the involvement of CLICs or macropinocytosis. Importantly, Aβ(1-42) behaves distinctively different than the CME-cargo Trf, but also dextran, which is an unspecific fluid-phase endocytosis marker.

SH-SY5Y cells [2] = assay: Cellular uptake by flow cytometry in cells transfected with EGFP-tagged Rho GTPases (Cdc42, Rac1, RhoA); details: for uptake on overexpression of DA EGFP-Cdc42 Q61L relative to nontransfected cells / uptake on overexpression of WT or DN EGFP-Cdc42 relative to nontransfected cells: ~24 h post-transfection; for uptake on overexpression of DA EGFP-Cdc42 Q61L relative to nontransfected cells: 1 μM HF647-Aβ(1-42) 1 h, 5 μg/mL AF647-Trf 5 min (N = 3, n = 4) or 125 μg/ml AF647-dextran 10 kDa 1 h (n = 4); for uptake on overexpression of EGFP-tagged Rac1 (DA Q61L, WT, DN T17N) relative to nontransfected cells: 1 μM HF647-Aβ(1-42) 1 h (N = 3, n = 4) or 125 μg/ml AF647-dextran 10 kDa 1 h (n = 4); for uptake on overexpression of WT or DN EGFP-Cdc42 relative to nontransfected cells / uptake on overexpression of all variants of EGFP-tagged RhoA (DA Q63L, WT, DN T19N) relative to nontransfected cells: 1 μM HF647-Aβ(1-42) 1 h or 5 μg/mL AF647-Trf 5 min; for uptake on overexpression of all variants of EGFP-tagged RhoA (DA Q63L, WT, DN T19N) relative to nontransfected cells: ~30 h post-transfection, N = 4, n = 4
Description: SH-SY5Y cells were passaged 2 days prior to transfection, grown to ∼70% confluency, and transfected with plasmids encoding for Rho GTPases (EGFP-tagged DA, WT, and DN variants of Cdc42, Rac1, and RhoA; see the above section Reagents) by electroporation using a Neon Transfection System (Invitrogen, Carlsbad, CA), following the protocol provided by the manufacturer and applying a single pulse of 1 100 V with a pulse width of 50 ms. The cells were transfected using 1 μg of plasmid DNA/100 000 cells in a 10 μL Neon Tip or 10 μg of plasmid DNA/10^6 cells in a 100 μL Neon Tip and plated immediately after. Based on the initial experiments, the analysis was set to ∼24 h, ∼27 h, and ∼30 h post-transfection for Cdc42, Rac1, and RhoA, respectively, by evaluating the time it took until the cells expressed the proteins and adapted the expected morphologies.
Flow cytometry was used for quantification of cellular uptake. […] All samples were kept on ice until they were analyzed on a Guava EasyCyte 8HT (Millipore, Darmstadt, Germany) that automatically retrieves samples from a 96-well plate. In order to exclude effects due to difference in delay time, we used mixed order of analysis, loading only a few samples at a time with the remaining samples kept on ice. Only the central cell cluster on the forward/side scatter (FSC/SSC) dot plot was analyzed, and for each sample 5 000 cells from within the gate were counted. […] The mean cellular uptake or level of Rho GTPase expression was estimated as the average fluorescence intensity of all cells within the gate. The mean cellular uptake was baseline corrected by subtracting the signal recorded for untreated cells. Each cell treatment was performed in three or four technical replicates (n = 3–4) and repeated on at least two separate occasions (N ≥ 2).
Statistical analysis was performed by matched sample ANOVA using GraphPad Prism software (GraphPad, San Diego, CA) on data that had been normalized so that the uptake in nontransfected cells was 100% for the individual experiments. Matched sample ANOVA was followed by multiple comparisons with the Bonferroni posthoc test to test for differences in mean peptide uptake between nontransfected cells and uptake at the different transfection efficiencies. This means that the reported individual p-values have been adjusted for the number of comparisons that were relevant to the experiment.

SH-SY5Y cells [3] = assay: Live cell confocal microscopy of uptake during changes in membrane tension; details: 2 μM HF488-Aβ(1-42); for internalization during hypotonic conditions: 10 min in hypotonic medium (75% MQ water, 25% cell culture medium); for internalization during hypotonic conditions / internalization during recovery (re-exposure to isotonic conditions): 250 μg/mL AF647-dextran 10 kDa or 5 μg/mL AF488-Trf; for internalization during recovery (re-exposure to isotonic conditions): 10 min in isotonic medium after 10 min hypotonic (75% MQ); for internalization under isotonic conditions: 10 min in isotonic medium, 250 μg/mL AF647-dextran 10 kDa
Description: SH-SY5Y cells were incubated with Aβ(1-42), Trf, and dextran 10 kDa while exposed to changes in membrane tension and analyzed by confocal microscopy and flow cytometry. For uptake at isotonic conditions, the cells were washed 1× with serum-free medium, incubated with either 2 μM HF488-labeled Aβ(1-42), 5 μg/mL AF488-labeled Trf, or 250 μg/mL AF647-labeled dextran 10 kDa in serum-free medium with the addition of 2% B-27 for 10 min, washed 1× with serum free medium for microscopy, or 3×/2 min on ice with either ice-cold serum-free medium (Aβ(1-42) and dextran) or acidic buffer (0.1 M glycine-HCl buffer pH 2.5 with 150 mM NaCl; Trf)[80] and harvested for analysis by flow cytometry. […] Lastly, cells analyzed for uptake at recovery conditions were first pretreated with isotonic medium for 10 min followed by treatment in hypotonic medium for 10 min, whereupon they were exposed to the peptides and dextran in isotonic medium for 10 min.

SH-SY5Y cells [4] = assay: Cellular uptake quantified by flow cytometry during changes in membrane tension; format: cell-based, human; details: for cellular uptake during the recovery phase relative to uptake in isotonic media: 2 μM HF488-labeled Aβ(1-42) or 250 μg/mL AF647-labeled dextran 10 kDa, 10 min in isotonic medium after 10 min hypotonic (75% MQ), serum-free medium + 2% B-27, flow cytometry mean fluorescence, N = 8, n = 3–4; for effect of hypertonic media on uptake: addition of 100 mM NaCl to the culture medium, 2 μM HF488-Aβ(1-42), 250 μg/mL AF647-dextran 10 kDa, 10 min, flow cytometry, N = 4, n = 3–4
Description: Flow cytometry was used for quantification of cellular uptake.

| Compound | effect of macropinocytosis inhibitor on the uptake of Aβ(1-40) and Aβ(1-42) (SH-SY5Y cells [1]) | internalization in presence of inhibitors of actin polymerization (SH-SY5Y cells [1]) | uptake on overexpression of DA EGFP-Cdc42 Q61L relative to nontransfected cells (SH-SY5Y cells [2]) | uptake on overexpression of EGFP-tagged Rac1 (DA Q61L, WT, DN T17N) relative to nontransfected cells (SH-SY5Y cells [2]; ~27 h post-transfection) | internalization during hypotonic conditions (SH-SY5Y cells [3]) | internalization during recovery (re-exposure to isotonic conditions) (SH-SY5Y cells [3]) | internalization under isotonic conditions (SH-SY5Y cells [3]) | cellular uptake during the recovery phase relative to uptake in isotonic media (SH-SY5Y cells [4]) | effect of hypertonic media on uptake (SH-SY5Y cells [4]) | uptake on overexpression of WT or DN EGFP-Cdc42 relative to nontransfected cells (SH-SY5Y cells [2]; N = 3, n = 4) | uptake on overexpression of all variants of EGFP-tagged RhoA (DA Q63L, WT, DN T19N) relative to nontransfected cells (SH-SY5Y cells [2]) | further results |
| --- | --- | --- | --- | --- | --- | --- | --- | --- | --- | --- | --- | --- |
| COC[C@H]1OC(=O)c2coc3c2[C@@]1(C)C1=C(C3=O)[C@@H]2CCC(=O)[C@@]2(C)C[C@H]1OC(C)=O [wortmannin] | reductions | – | – | – | – | – | – | – | – | – | – | – |
| Aβ(1-40): Amyloid-β isoform; uptake results quoted from the authors' earlier work | – | reduced | – | – | – | – | – | – | – | – | – | – |
| dextran | – | – | unaffected | did not alter | little or no internalization | induced | low | ~8 times | did not increase | – | – | reduction of uptake in cells expressing DA RhoA (SH-SY5Y cells [2]; ~30 h post-transfection with RhoA Q63L, 125 μg/ml AF647-labelled dextran 10 kDa 1 h, n = 4): up to 50% |
| Trf: AlexaFluor488- and AlexaFluor647-labeled Transferrin, ligand of clathrin-mediated endocytosis | – | not | reduced | – | blocked | remained low | – | – | – | no effect | reduced | uptake in cells with the highest concentration of WT and DN Rac1 (SH-SY5Y cells [2]; ~27 h post-transfection, 5 μg/mL AF488-labeled Trf 5 min, high gate, N = 3, n = 4): reduction; uptake in cells with medium expression level of DA Rac1 versus control (SH-SY5Y cells [2]; ~27 h post-transfection, 5 μg/mL AF488-labeled Trf 5 min, medium gate, N = 3, n = 4): slightly more |
| Aβ(1-42): Synthetic Aβ(1-42) peptide, conjugated to the HiLyte Fluor HF488 or HF647 at the N-terminus, from Anaspec; applied in highly monomeric form | – | reduced | reduced | None of the Rac1 variants had any effect | little or no internalization | resumed to internalize | formation of small endosomal vesicles containing Aβ(1-42) was observed | doubles | did not increase | no effect | reduced | internalization by NIH-3T3 fibroblasts compared with CHO and SH-SY5Y (SH-SY5Y cells [1]): more |
| Oc1ccc2ccccc2c1SSc1c(O)ccc2ccccc12 [IPA-3] | reductions | – | – | – | – | – | – | – | – | – | – | – |
